We go through eleven molecules from patent US7294706.

Bounds are passed on as bounds.

Assay [1] addresses FGFR2 over-expressed on CHO cells (CHO-FGFR2) and on 32D cells (32D-FGFR2) (UniProt P21803). Kind of assay: competition of unlabeled protein with 125I-FGF4 (Gly79-Leu206) for CHO-FGFR2 cells, +heparin.
The target is the same in assay [2]. Kind of assay: cell-based or functional assay.

B1: FGF4 (Gly79-Leu206) Y87A (ligand)
chain: GIKRLRRLACNVGIGFHLQALPDGRIGGAHADTRDSLLELSPVERGVVSIFGVASRFFVAMSSKGKLYGSPFFTDECTFKEILLPNNYNAYESYKYPGMFIALGKNGKTKKGNRVSPTMKVTHFLPRL
In the case of B1, in assay [1], the IC50 mutant/IC50 wild-type (ratio (IC50 mutant/IC50 wild-type)) is more than 100. Also, in assay [2], the DNA Synthesis NIH 3T3 cells (ED50 mutant/ED50 wild-type), +heparin (ratio ED50 mutant/ED50 wild-type) amounted to 500 and the DNA Synthesis NIH 3T3 cells (ED50 mutant/ED50 wild-type), -heparin (ratio ED50 mutant/ED50 wild-type) was more than 500.

B2: FGF4 (Gly79-Leu206) F151A (ligand)
chain: GIKRLRRLYCNVGIGFHLQALPDGRIGGAHADTRDSLLELSPVERGVVSIFGVASRFFVAMSSKGKLYGSPFATDECTFKEILLPNNYNAYESYKYPGMFIALGKNGKTKKGNRVSPTMKVTHFLPRL
For B2, the IC50 mutant/IC50 wild-type (ratio (IC50 mutant/IC50 wild-type)) in assay [1] was 2.5.

B3: FGF4 (Gly79-Leu206) E159A (ligand)
chain: GIKRLRRLYCNVGIGFHLQALPDGRIGGAHADTRDSLLELSPVERGVVSIFGVASRFFVAMSSKGKLYGSPFFTDECTFKAILLPNNYNAYESYKYPGMFIALGKNGKTKKGNRVSPTMKVTHFLPRL
For B3, in assay [1], the IC50 mutant/IC50 wild-type (ratio (IC50 mutant/IC50 wild-type)) amounted to 5.

B4: N-terminal truncated wild-type FGF4 (Gly79-Leu206) (ligand)
chain: GIKRLRRLYCNVGIGFHLQALPDGRIGGAHADTRDSLLELSPVERGVVSIFGVASRFFVAMSSKGKLYGSPFFTDECTFKEILLPNNYNAYESYKYPGMFIALGKNGKTKKGNRVSPTMKVTHFLPRL
With B4, in assay [1], the IC50 mutant/IC50 wild-type (ratio (IC50 mutant/IC50 wild-type)) is 1.

B5: FGF4 (Gly79-Leu206) L203A (ligand)
chain: GIKRLRRLYCNVGIGFHLQALPDGRIGGAHADTRDSLLELSPVERGVVSIFGVASRFFVAMSSKGKLYGSPFFTDECTFKEILLPNNYNAYESYKYPGMFIALGKNGKTKKGNRVSPTMKVTHFAPRL
B5: in assay [1], the IC50 mutant/IC50 wild-type (ratio (IC50 mutant/IC50 wild-type)) is more than 100. For the same molecule, in assay [2], the DNA Synthesis NIH 3T3 cells (ED50 mutant/ED50 wild-type), +heparin (ratio ED50 mutant/ED50 wild-type) is more than 500 and the DNA Synthesis NIH 3T3 cells (ED50 mutant/ED50 wild-type), -heparin (ratio ED50 mutant/ED50 wild-type) was more than 500.

B6: FGF4 (Gly79-Leu206) F129A (ligand)
chain: GIKRLRRLYCNVGIGFHLQALPDGRIGGAHADTRDSLLELSPVERGVVSIAGVASRFFVAMSSKGKLYGSPFFTDECTFKEILLPNNYNAYESYKYPGMFIALGKNGKTKKGNRVSPTMKVTHFLPRL
Turning to B6, the IC50 mutant/IC50 wild-type (ratio (IC50 mutant/IC50 wild-type)) in assay [1] is more than 100. Besides, in assay [2], the DNA Synthesis NIH 3T3 cells (ED50 mutant/ED50 wild-type), +heparin (ratio ED50 mutant/ED50 wild-type) is more than 500 and the DNA Synthesis NIH 3T3 cells (ED50 mutant/ED50 wild-type), -heparin (ratio ED50 mutant/ED50 wild-type) was more than 500.

B7: FGF4 (Gly79-Leu206) E117A (ligand)
chain: GIKRLRRLYCNVGIGFHLQALPDGRIGGAHADTRDSLLALSPVERGVVSIFGVASRFFVAMSSKGKLYGSPFFTDECTFKEILLPNNYNAYESYKYPGMFIALGKNGKTKKGNRVSPTMKVTHFLPRL
For B7, in assay [1], the IC50 mutant/IC50 wild-type (ratio (IC50 mutant/IC50 wild-type)) was found to be 7.

B8: FGF4 (Gly79-Leu206) H201A (ligand)
chain: GIKRLRRLYCNVGIGFHLQALPDGRIGGAHADTRDSLLELSPVERGVVSIFGVASRFFVAMSSKGKLYGSPFFTDECTFKEILLPNNYNAYESYKYPGMFIALGKNGKTKKGNRVSPTMKVTAFLPRL
As for B8, the IC50 mutant/IC50 wild-type (ratio (IC50 mutant/IC50 wild-type)) in assay [1] is more than 1000.

B9: FGF4 (Gly79-Leu206) R205A (ligand)
chain: GIKRLRRLYCNVGIGFHLQALPDGRIGGAHADTRDSLLELSPVERGVVSIFGVASRFFVAMSSKGKLYGSPFFTDECTFKEILLPNNYNAYESYKYPGMFIALGKNGKTKKGNRVSPTMKVTHFLPAL
For B9, the IC50 mutant/IC50 wild-type (ratio (IC50 mutant/IC50 wild-type)) in assay [1] came out at 2.5. Besides, in assay [2], the DNA Synthesis NIH 3T3 cells (ED50 mutant/ED50 wild-type), +heparin (ratio ED50 mutant/ED50 wild-type) came out at 2.5 and the DNA Synthesis NIH 3T3 cells (ED50 mutant/ED50 wild-type), -heparin (ratio ED50 mutant/ED50 wild-type) was found to be 25.

B10: FGF4 (Gly79-Leu206) L162A (ligand)
chain: GIKRLRRLYCNVGIGFHLQALPDGRIGGAHADTRDSLLELSPVERGVVSIFGVASRFFVAMSSKGKLYGSPFFTDECTFKEILAPNNYNAYESYKYPGMFIALGKNGKTKKGNRVSPTMKVTHFLPRL
For B10, the IC50 mutant/IC50 wild-type (ratio (IC50 mutant/IC50 wild-type)) in assay [1] is more than 1000.

B11: FGF4 (Gly79-Leu206) Y166A (ligand)
chain: GIKRLRRLYCNVGIGFHLQALPDGRIGGAHADTRDSLLELSPVERGVVSIFGVASRFFVAMSSKGKLYGSPFFTDECTFKEILLPNNANAYESYKYPGMFIALGKNGKTKKGNRVSPTMKVTHFLPRL
For B11, the IC50 mutant/IC50 wild-type (ratio (IC50 mutant/IC50 wild-type)) in assay [1] is more than 100. In addition, in assay [2], the DNA Synthesis NIH 3T3 cells (ED50 mutant/ED50 wild-type), +heparin (ratio ED50 mutant/ED50 wild-type) was more than 500 and the DNA Synthesis NIH 3T3 cells (ED50 mutant/ED50 wild-type), -heparin (ratio ED50 mutant/ED50 wild-type) came to 500.
